According to patent US20260242478A1 (published 2026):
Where no end group is shown, it is not given here.

Legend:
PSMA Fab (006 PSMA Fab) [1] = target: T1, PSMA Fab (006 PSMA Fab); assay: clonal phage ELISA on biotinylated PSMA Fab captured on neutravidin, anti-M13 HRP detection;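 further: crude clonal phage supernatants added to wells pretreated with PSMA antigen in blocking buffer or with blocking buffer only, then briefly incubated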
T1 construct: also called Anti-PSMA Fab
Protocol: (§1) Clonal phage were harvested as crude supernatants and screened via standard ELISAs. […] Prior to the addition of clonal phage. wells were incubated with blocking buffer and PSMA antigen or blocking buffer alone. Without washing or aspirating, clonal phage supernatants were then added to the wells and incubated for a short time. Wells were then washed followed by detection of bound phage using a horse radish conjugated anti-M13 antibody.

PSMA Fab (006 PSMA Fab) [2] = target: T1, PSMA Fab (006 PSMA Fab); assay: clonal phage ELISA on captured PSMA Fab, wells pre-incubated with PSMA antigen as competitor
Protocol: as §1

Anti-PSMA Fab [3] = target: T2, Anti-PSMA Fab; assay: phage binding ELISA; clonal phage supernatant on biotinylated anti-PSMA Fab captured on neutravidin plate; anti-M13-HRP detection
T2 construct: Biotinylated and captured on neutravidin coated plates in the phage ELISA; also called 006 PSMA Fab
Protocol: as §1

Anti-PSMA Fab [4] = target: T2, Anti-PSMA Fab; assay: phage binding ELISA on captured anti-PSMA Fab; wells pre-incubated with PSMA antigen as competitor; anti-M13-HRP detection
Protocol: as §1

PSMA Fab [5] = target: T3, PSMA Fab (biotinylated (site not stated)); assay: clonal phage ELISA on captured PSMA Fab, competitor PSMA antigen pre-incubated
T3 construct: Biotinylated PSMA Fab captured on neutravidin coated plates in the phage ELISA; also called Anti-PSMA Fab; 006 PSMA Fab

PSMA Fab [6] = target: T3, PSMA Fab; assay: clonal phage ELISA on biotinylated PSMA Fab captured on neutravidin, anti-M13 HRP detection;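 further: crude clonal phage supernatants added to wells pretreated with PSMA antigen in blocking buffer or with blocking buffer only, then briefly incubated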
Protocol: as §1

[7] = target: T4, PSMA Fab (006 PSMA Fab), biotinylated (biotinylated (site and chain not stated)); assay: phage ELISA; biotinylated PSMA Fab on neutravidin plate, blocking buffer alone, bound phage detected with HRP anti-M13 antibody
T4 construct: also called Anti-PSMA Fab; anti-PSMA Fab

[8] = target: T4, PSMA Fab (006 PSMA Fab), biotinylated; assay: phage ELISA; biotinylated PSMA Fab on neutravidin plate, wells first incubated with PSMA antigen as competitor, HRP anti-M13 detection
Protocol: as §1

Binder	Phage binding ELISA signal, Anti-PSMA Fab (Anti-PSMA Fab [3])	Phage binding ELISA signal, Anti-PSMA Fab with PSMA antigen (Anti-PSMA Fab [4])	Phage binding ELISA signal, Anti-PSMA Fab with PSMA antigen (PSMA Fab [5])	Phage binding ELISA signal, Anti-PSMA Fab (PSMA Fab [6])	Phage binding ELISA signal, Anti-PSMA Fab [7]	Phage binding ELISA signal, Anti-PSMA Fab with PSMA antigen [8]	other results
EDIKCIPRWMCEGF (Peptide-180 library clone, tested as clonal phage supernatant with the peptide fused to pIII of the bacteriophage) [Phage-3574]							Phage binding ELISA signal, Anti-PSMA Fab (PSMA Fab (006 PSMA Fab) [1]): 1.62; Phage binding ELISA signal, Anti-PSMA Fab in presence of PSMA (PSMA Fab (006 PSMA Fab) [2]): 0.0923
FIAQCQPTWMCTGF (Peptide-180 library clone, tested as clonal phage supernatant with the peptide fused to pIII of the bacteriophage) [Phage-3575]							Phage binding ELISA signal, Anti-PSMA Fab (PSMA Fab (006 PSMA Fab) [1]): 1.62; Phage binding ELISA signal, Anti-PSMA Fab in presence of PSMA (PSMA Fab (006 PSMA Fab) [2]): 0.076
ETFTCKPPWMCIGF (Tested as clonal phage supernatant) [Phage-3576 (Peptide-180 library clone)]	1.62	0.104					
YEKLCEPRWMCDGF (Tested as clonal phage supernatant) [Phage-3577 (Peptide-180 library clone)]	1.62	0.0657					
YDVVCKPAWMCNGF (Tested as clonal phage supernatant) [Phage-3578 (Peptide-180 library clone)]	1.62	0.0676					
GMGMCVPTWMCTGM (Tested as clonal phage supernatant) [Phage-3579 (Peptide-180 library clone)]	1.62	0.0797					
QLAMCVPLWMCYGF (Tested as clonal phage supernatant) [Phage-3580 (Peptide-180 library clone)]	1.62	0.092					
LGHWCSPTWMCMGF (Tested as clonal phage supernatant) [Phage-3581 (Peptide-180 library clone)]	1.62	0.11					
ESYTCVPMWMCTGF (Tested as clonal phage supernatant) [Phage-3582 (Peptide-180 library clone)]	1.61	0.088					
NIMRCQPSWMCTGF (Tested as clonal phage supernatant) [Phage-3583 (Peptide-180 library clone)]	1.61	0.064					
PSPICRPEWMCVWL (Tested as clonal phage supernatant) [Phage-3584 (Peptide-180 library clone)]	1.61	0.0954					
TFMRCEPVWMCDGF (Tested as clonal phage supernatant) [Phage-3585 (Peptide-180 library clone)]	1.61	0.0709					
NLGWCVPVWMCEGF (Tested as clonal phage supernatant) [Phage-3586 (Peptide-180 library clone)]	1.61	0.101					
HEPVCRPEWMCQGF (Tested as clonal phage supernatant) [Phage-3587 (Peptide-180 library clone)]	1.6	0.0717					
ESHLCRPAWMCTGF (Tested as clonal phage supernatant) [Phage-3588 (Peptide-180 library clone)]	1.6	0.089					
TTLMCTPQWMCDGF (Tested as clonal phage supernatant) [Phage-3589 (Peptide-180 library clone)]	1.6	0.0718					
MPGACVPLWMCYGF [Phage-3590]			0.0685	1.6			
EELMCRPVWMCLGF [Phage-3591]			0.0789	1.6			
VEKMCKPAWMCNVF [Phage-3592]			0.0777	1.6			
PDPLCVPNWMCIGL [Phage-3593]			0.0686	1.6			
TEIRCQPQWMCHGF [Phage-3594]			0.0698	1.6			
QGVACIPTWMCTGF [Phage-3595]			0.0711	1.59			

Binder	Phage binding ELISA signal, Anti-PSMA Fab (Anti-PSMA Fab [3])	Phage binding ELISA signal, Anti-PSMA Fab with PSMA antigen (Anti-PSMA Fab [4])	Phage binding ELISA signal, Anti-PSMA Fab with PSMA antigen (PSMA Fab [5])	Phage binding ELISA signal, Anti-PSMA Fab (PSMA Fab [6])	Phage binding ELISA signal, Anti-PSMA Fab [7]	Phage binding ELISA signal, Anti-PSMA Fab with PSMA antigen [8]	other results
LERLCRPAWMCDGF [Phage-3596]			0.136	1.59			
EIPWCVPSWMCNYF [Phage-3597]			0.0904	1.59			
VETLCRPAWMCWGF [Phage-3598]			0.0788	1.59			
QDLKCVPSWMCSGF [Phage-3599]			0.0713	1.59			
WEVRCEPAWMCIGL [Phage-3600]			0.0694	1.59			
VMHRCEPSWMCWGF [Phage-3601]			0.118	1.58			
HEPVCKPSWMCTGL [Phage-3602]			0.0595	1.58			
EGLRCVPAWMCAGF [Phage-3603]			0.0633	1.58			
HVAMCQPTWMCMGF (cysteine pairing not given here; also: fused to pIII of bacteriophage, junction and order not given here, Tested as crude clonal phage supernatant; not shown: pIII filament protein of the bacteriophage, fused to the peptide) [Phage-3604, clonal phage showing a Peptide-180 library peptide]					1.58	0.123	
WTFKCEPVWMCEGF (Tested as crude clonal phage supernatant; not shown: pIII filament protein of the bacteriophage, fused to the peptide) [Phage-3605, clonal phage showing a Peptide-180 library peptide]					1.58	0.101	
VVVSCTPSWMCTGL (Tested as crude clonal phage supernatant; not shown: pIII filament protein of the bacteriophage, fused to the peptide) [Phage-3606, clonal phage showing a Peptide-180 library peptide]					1.58	0.0718	
LDIVCRPSWMCYGF (Tested as crude clonal phage supernatant; not shown: pIII filament protein of the bacteriophage, fused to the peptide) [Phage-3607, clonal phage showing a Peptide-180 library peptide]					1.58	0.0774	
ETVRCIPSWMCTGL (Tested as crude clonal phage supernatant; not shown: pIII filament protein of the bacteriophage, fused to the peptide) [Phage-3608, clonal phage showing a Peptide-180 library peptide]					1.58	0.0717	
SHMVCKPTWMCQGF (Tested as crude clonal phage supernatant; not shown: pIII filament protein of the bacteriophage, fused to the peptide) [Phage-3609, clonal phage showing a Peptide-180 library peptide]					1.58	0.074	
VQPACVPIWMCDGL (Tested as crude clonal phage supernatant; not shown: pIII filament protein of the bacteriophage, fused to the peptide) [Phage-3610, clonal phage showing a Peptide-180 library peptide]					1.58	0.0782	
VDRLCMPIWMCEGL (Tested as crude clonal phage supernatant; not shown: pIII filament protein of the bacteriophage, fused to the peptide) [Phage-3611, clonal phage showing a Peptide-180 library peptide]					1.58	0.0788	
DPVMCMPRWMCDGF (Tested as crude clonal phage supernatant; not shown: pIII filament protein of the bacteriophage, fused to the peptide) [Phage-3612, clonal phage showing a Peptide-180 library peptide]					1.57	0.0916	
ETMRCEPSWMCIGL (Tested as crude clonal phage supernatant; not shown: pIII filament protein of the bacteriophage, fused to the peptide) [Phage-3613, clonal phage showing a Peptide-180 library peptide]					1.57	0.0724	
GWEWCIPEWMCTGL (Tested as crude clonal phage supernatant; not shown: pIII filament protein of the bacteriophage, fused to the peptide) [Phage-3614, clonal phage showing a Peptide-180 library peptide]					1.57	0.0625	
LDRLCLPQWMCVGM (Tested as crude clonal phage supernatant; not shown: pIII filament protein of the bacteriophage, fused to the peptide) [Phage-3615, clonal phage showing a Peptide-180 library peptide]					1.57	0.0704	
ESRLCVPMWMCSGF (Tested as crude clonal phage supernatant; not shown: pIII filament protein of the bacteriophage, fused to the peptide) [Phage-3616, clonal phage showing a Peptide-180 library peptide]					1.57	0.0707	
DFIRCSPIWMCDGF (Tested as crude clonal phage supernatant; not shown: pIII filament protein of the bacteriophage, fused to the peptide) [Phage-3617, clonal phage showing a Peptide-180 library peptide]					1.57	0.0807	
